Tests used:
FcγRI (human) [1] = molecular target: FcγRI (human) (UniProt P12314); assay: SPR Biacore T100, FcγRI captured by pentaHis antibody, antibody as analyte 0-100 nM
Target sequence in this assay (P12314 16-288 limits assumed): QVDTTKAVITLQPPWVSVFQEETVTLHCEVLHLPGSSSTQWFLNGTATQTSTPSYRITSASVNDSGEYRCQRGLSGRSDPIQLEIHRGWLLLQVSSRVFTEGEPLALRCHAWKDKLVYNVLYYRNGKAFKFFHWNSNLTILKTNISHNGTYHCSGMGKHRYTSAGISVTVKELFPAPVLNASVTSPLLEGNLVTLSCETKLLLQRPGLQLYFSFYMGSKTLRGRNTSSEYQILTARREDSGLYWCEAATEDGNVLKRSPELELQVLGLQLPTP

FcγRI (human) [2] = molecular target: FcγRI (human) (UniProt P12314); assay: SPR
Target sequence in this assay (P12314 16-288): as the sequence (P12314 16-288 limits assumed) above

FcγRIIA-R131 (human) = FcγRIIA-R131 (human) (UniProt P12318); assay: SPR Biacore T100, antibody immobilised, receptor as analyte 0-12800 nM, steady state fit
FcγRIIIA-V158 (human) = FcγRIIIA-V158 (human) (UniProt P08637); assay: as above
Chain of FcγRIIIA-V158 (human) (P08637 17-208 F176V limits assumed): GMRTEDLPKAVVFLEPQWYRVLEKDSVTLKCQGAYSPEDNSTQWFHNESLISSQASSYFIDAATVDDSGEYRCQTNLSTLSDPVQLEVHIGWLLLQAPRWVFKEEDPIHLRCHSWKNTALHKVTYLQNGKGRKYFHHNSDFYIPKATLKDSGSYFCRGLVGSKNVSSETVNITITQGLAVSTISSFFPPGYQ

Chain of FcγRIIA-R131 (human) (P12318 36-218 H167R limits assumed): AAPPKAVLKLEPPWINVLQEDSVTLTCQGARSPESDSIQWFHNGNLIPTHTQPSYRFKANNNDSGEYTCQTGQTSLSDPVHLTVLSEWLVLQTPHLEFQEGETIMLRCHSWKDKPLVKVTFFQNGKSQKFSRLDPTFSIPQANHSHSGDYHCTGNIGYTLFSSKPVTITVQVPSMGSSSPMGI
Chain of IgG4 SPLE (antibody not named, Tables 2A and 2B) (constant): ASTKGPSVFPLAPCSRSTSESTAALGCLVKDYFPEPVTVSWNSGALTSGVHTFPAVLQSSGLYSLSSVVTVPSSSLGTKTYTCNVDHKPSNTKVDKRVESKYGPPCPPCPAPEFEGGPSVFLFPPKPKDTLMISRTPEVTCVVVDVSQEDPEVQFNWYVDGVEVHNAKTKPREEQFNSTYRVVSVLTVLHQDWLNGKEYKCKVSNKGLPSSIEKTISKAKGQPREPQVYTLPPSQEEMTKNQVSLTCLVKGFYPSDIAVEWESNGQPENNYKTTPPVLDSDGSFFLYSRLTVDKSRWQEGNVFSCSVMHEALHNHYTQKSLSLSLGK

Row | Substance | Kd (FcγRI (human) [1]) [nM] | Kd (FcγRI (human) [2]) [nM] | Kd (FcγRIIA-R131 (human)) [nM] | also measured
1 | CD20 antibody GA101 IgG1 P329G | 5.7 | – | – | –
2 | CD20 antibody GA101 IgG1 wildtype | 4.6 | – | – | –
3 | GA P329G | – | 12 | – | –
4 | IgG4 SPLE (antibody not named, Tables 2A and 2B) | – | – | 10000 | –
5 | IgG4 Wt | – | 14 | – | –
6 | WT IgG1 (antibody not named, Tables 2A and 2B) | 5 | – | 2000 | Kd (FcγRIIIA-V158 (human)): 700 nM

Source: patent US20150239981A1
